The experiment concerns the target Endogenous bovine Arp2/3 complex, A7MB62;P61157. In words: fluorescence anisotropy competition assay. To be noted: chain shown with the change; reporter 20 nM VVCA-A462C-AF594; mixture incubated for 10 min prior to measurement; parent: est. 6.0 nM; read off a plot. On the technique in general: In fluorescence polarisation assays a small probe gives low polarisation when free and higher when bound to something large.

B1: GST-VCA (GST fusion of N-WASP residues 432–505), O00401 I467A (protein)
chain: SGRDALLDQIRQGIQLKSVADGQESTPPTPAPTSGAVGALMEVMQKRSKAIHSSDEDEDEDDEEDFEDDDEWED
As for B1, the Kd (commonly the equilibrium constant for the complex coming apart) worked out at 20 nM.

For the origin of these results see publication PMC3762362.
